{"source": "paper PMC4840434", "about": "“The interactome of Streptococcus pneumoniae and its bacteriophages show highly specific patterns of interactions among bacteria and their phages” (Scientific Reports, 2016)", "molecules": {"B1": {"name": "SP_1088, DNA repair protein RadC (LuMPIS construct) (natural protein)", "chain": "MYSISFQEDSLLPRERLAKEGVEALSNQELLAILLRTGTRQASVFEIAQKVLNNLSSLTDLKKMTLQELQSLSGIGRVKAIELQAMIELGHRIHKHETLEMESILSSQKLAKKMQQELGDKKQEHLVALYLNTQNQIIHQQTIFIGSVTRSIAEPREILHYAIKHMATSLILVHNHPSGAVAPSQNDDHVTKLVKEACELMGIVLLDHLIVSHSNYFSYREKTDLI"}, "B2": {"name": "SP_1672, recombination protein RecR (LuMPIS construct) (natural protein)", "chain": "MLYPTPIAKLIDSYSKLPGIGIKTATRLAFYTIGMSADDVNEFAKNLLSAKRELTYCSICGRLTDDDPCSICTDPTRDQTTILVLEDSRDVAAMENIQEYHGLYHVLHGLISPMNGISPDDINLKSLMTRLMDSEVSEVIVATNATADGEATSMYLSRLLKPAGIKVTRLARGLAVGADIEYADEVTLLRAIENRTEL"}, "B3": {"name": "SP_1208, uridine kinase (LuMPIS construct) (natural protein, S. pneumoniae TIGR4, UniProt P67413 1-212, looked up)", "chain": "MQNRPIIIGVTGGSGGGKTSVSRAILSHFPDEKISMIEHDSYYKDQSHLTFEERVKTNYDHPFAFDTDLMIEQIKELLAGRPVDIPTYDYTEHTRSSKTYRQEPQDVFIVEGILVLEDKRLRDLMDIKIFVDTDDDVRIIRRIKRDMEERGRSLDSVINQYLGVVKPMYHQFIESTKRYADIVIPEGVSNTVAIDLLTTKIAKILEEARNSK", "notes": "SP_1208 uridine kinase, S. pneumoniae TIGR4; ORF in a Gateway LuMPIS vector; source: HEK cells, raw protein extract"}}, "assay_in_all_cases": "pull-down; LuMPIS: N-terminally MBP-tagged bait pulled down on amylose beads, N-terminally eGFP-luciferase-tagged prey detected by luciferase activity; both expressed in HEK cells, raw protein extracts; quadruplicates; LIR against MBP without ORF", "key": {"[1]": {"molecular_target": "Dp-1 orf58, Holin (LuMPIS construct) (phage Dp-1 of S. pneumoniae)"}, "[2]": {"molecular_target": "Dp-1 orf72, Membrane protein (LuMPIS construct) (phage Dp-1 of S. pneumoniae)"}, "[3]": {"molecular_target": "Dp-1 orf60, Hypothetical protein (LuMPIS construct) (phage Dp-1 of S. pneumoniae)"}, "[4]": {"molecular_target": "Dp-1 orf47, Hypothetical protein (LuMPIS construct) (phage Dp-1 of S. pneumoniae)"}, "[5]": {"molecular_target": "Cp-1 orf16, Hypothetical protein (LuMPIS construct) (phage Cp-1 of S. pneumoniae)"}, "[6]": {"molecular_target": "Dp-1 orf16, NAD-dependent DNA ligase (LuMPIS construct) (phage Dp-1 of S. pneumoniae)"}, "[7]": {"molecular_target": "Dp-1 orf31, Hypothetical protein (LuMPIS construct) (phage Dp-1 of S. pneumoniae)"}, "[8]": {"molecular_target": "Dp-1 orf32, Hypothetical protein (LuMPIS construct) (phage Dp-1 of S. pneumoniae)"}, "[9]": {"molecular_target": "Dp-1 orf39, Zinc finger protein (LuMPIS construct) (phage Dp-1 of S. pneumoniae)"}, "[10]": {"molecular_target": "Dp-1 orf9, No similarity (LuMPIS construct) (phage Dp-1 of S. pneumoniae)"}, "[11]": {"molecular_target": "Dp-1 orf33, Hypothetical protein (LuMPIS construct) (phage Dp-1 of S. pneumoniae)"}, "[12]": {"molecular_target": "Dp-1 orf51, Hypothetical protein (LuMPIS construct) (phage Dp-1 of S. pneumoniae)"}, "[13]": {"molecular_target": "T1, Cp-1 Cpl1, Lysozyme (LuMPIS construct) (phage Cp-1 of S. pneumoniae, UniProt P15057 1-339)", "T1 construct": "Cpl1 lysozyme of phage Cp-1; ORF in a Gateway LuMPIS vector; source: HEK cells, raw protein extract", "T1 sequence": "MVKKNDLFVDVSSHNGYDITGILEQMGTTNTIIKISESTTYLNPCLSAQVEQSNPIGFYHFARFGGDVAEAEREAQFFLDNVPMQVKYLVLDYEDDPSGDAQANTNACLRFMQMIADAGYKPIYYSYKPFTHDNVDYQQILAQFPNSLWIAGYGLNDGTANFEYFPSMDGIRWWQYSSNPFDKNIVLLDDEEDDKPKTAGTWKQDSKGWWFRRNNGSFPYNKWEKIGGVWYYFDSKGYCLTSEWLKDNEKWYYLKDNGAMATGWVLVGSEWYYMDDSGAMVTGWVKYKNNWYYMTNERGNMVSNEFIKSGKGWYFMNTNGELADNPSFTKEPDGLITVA", "settings": "partners not purified"}}, "data": [{"molecule": "SP_1606, glycosyl transferase, family 2 (LuMPIS construct) (from UniProt A0A0H2UQY5 1-320) (natural protein)", "values": [{"measurement": "LIR (luminescence intensity ratio against MBP alone)", "setting": "[1]", "result": 3}, {"measurement": "LIR (luminescence intensity ratio against MBP alone)", "setting": "[2]", "result": 50}]}, {"molecule": "SP_2024, PTS system, IIA component (LuMPIS construct) (from UniProt A0A0H2US90 1-108) (natural protein)", "values": [{"measurement": "LIR (luminescence intensity ratio against MBP alone)", "setting": "[3]", "result": 5}]}, {"molecule": "SP_0687, ABC transporter, ATP-binding protein (LuMPIS construct) (from UniProt A0A0H2UP48 1-213) (natural protein)", "values": [{"measurement": "LIR (luminescence intensity ratio against MBP alone)", "setting": "[4]", "result": 4}]}, {"molecule": "SP_0259, Holliday junction DNA helicase RuvB (LuMPIS construct) (from UniProt Q97SR6 1-332) (natural protein)", "values": [{"measurement": "LIR (luminescence intensity ratio against MBP alone)", "setting": "[5]", "result": 12}, {"measurement": "LIR (luminescence intensity ratio against MBP alone)", "setting": "[6]", "result": 5}, {"measurement": "LIR (luminescence intensity ratio against MBP alone)", "setting": "[7]", "result": 4}, {"measurement": "LIR (luminescence intensity ratio against MBP alone)", "setting": "[8]", "result": 3}, {"measurement": "LIR (luminescence intensity ratio against MBP alone)", "setting": "[9]", "result": 10}, {"measurement": "LIR (luminescence intensity ratio against MBP alone)", "setting": "[10]", "result": 11}]}, {"molecule": "B1", "values": [{"measurement": "LIR (luminescence intensity ratio against MBP alone)", "setting": "[11]", "result": 3}]}, {"molecule": "B2", "values": [{"measurement": "LIR (luminescence intensity ratio against MBP alone)", "setting": "[12]", "result": 6}]}, {"molecule": "B3", "values": [{"measurement": "LIR (luminescence intensity ratio against MBP alone)", "setting": "[13]", "result": 4}]}]}
